To fix the notation:
B1: Transcriptional repressor OPI1 (Saccharomyces cerevisiae), P21957 (parent)
chain: MSENQRLGLSEEEVEAAEVLGVLKQSCRQKSQPSEDVSQADKMPASESSTTPLNILDRVSNKIISNVVTFYDEINTNKRPLKSIGRLLDDDDDEHDDYDYNDDEFFTNKRQKLSRAIAKGKDNLKEYKLNMSIESKKRLVTCLHLLKLANKQLSDKISCLQDLVEKEQVHPLHKQDGNARTTTGAGEDETSSDEDDDDEEFFDASEQVNASEQSIVVKMEVVGTVKKVYSLISKFTANSLPEPARSQVRESLLNLPTNWFDSVHSTSLPHHASFHYANCEEQKVEQQQQQQQQQQQQQLLQQQLLQQQQQKRNKDGDDSASPSSSVTANGKVLILAKESLEMVRNVMGVVDSTLGKAEEWVKQKQEVKEMIRERFLQQQQQYRQQQQKDGNYVKPSQDNVDSKD
partner: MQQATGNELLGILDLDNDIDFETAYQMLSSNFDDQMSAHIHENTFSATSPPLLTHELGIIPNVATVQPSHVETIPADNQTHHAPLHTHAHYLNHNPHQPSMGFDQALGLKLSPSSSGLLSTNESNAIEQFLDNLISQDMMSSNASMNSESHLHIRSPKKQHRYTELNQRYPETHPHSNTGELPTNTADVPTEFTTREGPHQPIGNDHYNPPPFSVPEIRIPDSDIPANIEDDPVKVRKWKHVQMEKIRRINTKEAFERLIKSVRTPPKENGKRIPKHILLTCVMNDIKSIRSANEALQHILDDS

In the assay the parent is B1. The following applies: with ino2_yeast INO2, P26798.
Turning to MSENQRLGLSEEEVEAAEVLGVLKQSCRQKSQPSEDVSQADKMPASESSTTPLNILDRVSNKIISNVVTFYDEINTNKRPLKSIGRLLDDDDDEHDDYDYNDDEFFTNKRQKLSRAIAKGKDNLKEYKLNMSIESKKRLVTCLHLLKLANKQLSDKISCAQDLVEKEQVHPLHKQDGNARTTTGAGEDETSSDEDDDDEEFFDASEQVNASEQSIVVKMEVVGTVKKVYSLISKFTANSLPEPARSQVRESLLNLPTNWFDSVHSTSLPHHASFHYANCEEQKVEQQQQQQQQQQQQQLLQQQLLQQQQQKRNKDGDDSASPSSSVTANGKVLILAKESLEMVRNVMGVVDSTLGKAEEWVKQKQEVKEMIRERFLQQQQQYRQQQQKDGNYVKPSQDNVDSKD [L160A], the “effect of a mutation on the interaction” value is on record as “decreasing interaction”.

Source of the values: IntAct's records for PubMed 11454208.
